What was measured:
A. baumannii [1] = experiment: Checkerboard synergy assay (FICI) against A. baumannii; format: cell-based, Acinetobacter baumannii; conditions: A. baumannii ATCC BAA-747
Method: Any known method to assess MIC may be used.
Checkerboards are constructed by first preparing columns of e.g., a 96-well polypropylene microtiter plate, wherein each well has the same amount of antibiotic diluted 2-fold along the horizontal axis. […] Bacteria are added to the drug combinations at concentrations of 1×10^5 […] in CAA, for example, with or without human serum or pulmonary surfactant. […] Summation fractional inhibitory concentrations (ΣFICs) are calculated for each drug and the minimum ΣFIC value (ΣFICmin) is used to determine the effect of the Chp peptide/antibiotic combination.
GN370 was further tested in combination with up to seven additional antibiotics (in addition to meropenem) against a variety of bacterial strains, including P. aeruginosa, A. baumannii, E. coli, E. cloacae, and K. pneumoniae. GN370 and the subject antibiotics were tested in a checkerboard assay format, and FICI values were determined, wherein ≤0.5 indicates synergy, >0.5-≤1 indicates additive; and >1 indicates indifferent.

A. baumannii [2] = experiment: MIC by broth microdilution against A. baumannii; format: cell-based, Acinetobacter baumannii
E. cloacae = experiment: MIC by broth microdilution against E. cloacae; format: cell-based, Enterobacter cloacae
E. coli [3] = experiment: MIC by broth microdilution against E. coli; format: cell-based, Escherichia coli
Citrobacter freundii = experiment: MIC by broth microdilution against Citrobacter freundii; format: cell-based; conditions: N 2
Method: (§1) MIC values were determined by broth microdilution against clinical isolates and resistant isolates from a wide range of bacterial species, including isolates from the CDC Antibiotic Resistance bank, including the GN ESKAPE pathogens and E. coli, including carbapenem-resistant Enterobacteriaciae, Acinetobacter, and Pseudomonas.

Klebsiella oxytoca = experiment: MIC by broth microdilution against Klebsiella oxytoca; format: cell-based; conditions: N 1
Method: as §1

Kluyvera ascorbate = experiment: MIC by broth microdilution against Kluyvera ascorbate; format: cell-based; conditions: N 1
Method: as §1

Salmonella senftenberg = experiment: MIC by broth microdilution against Salmonella senftenberg; format: cell-based; conditions: N 1
Method: as §1

K. pneumoniae [4] = experiment: MBEC against K. pneumoniae biofilm; format: cell-based, Klebsiella pneumoniae; conditions: MDR and XDR K. pneumoniae (11)
E. coli [5] = experiment: MBEC against E. coli biofilm; format: cell-based, Escherichia coli; conditions: MDR and XDR E. coli (11)
K. pneumoniae [6] = experiment: GN370 time-kill assay, K. pneumoniae; format: cell-based, Klebsiella pneumoniae; conditions: for Log10 CFU/mL: K. pneumoniae ATCC 700603
Method: A kinetic analysis of GN370 bactericidal activity was performed using a time-kill assay format in which CFU reductions of each target organism (P. aeruginosa, K. pneumoniae, A. baumannii, E. coli, and E. cloacae) were measured over 24 hours at 37° C. […] Bactericidal activity was defined as CFU reductions of ≥3-log 10 CFU/mL as compared to the inoculum at the 24-hour time point.

P. aeruginosa = experiment: SEM and TEM imaging of membrane damage; format: cell-based, Pseudomonas aeruginosa; conditions: prior to pore formation and lysis
Method: Additionally, the mechanism of action of both the Chp peptides and the lysins and/or lysin-AMP constructs disclosed herein may be evaluated through the use of Scanning Electron Microscopy (SEM) and Transmission Electron Microscopy (TEM) techniques. Due to the rapid permeabilization and depolarization of bacterial membranes when contacted with Chp peptides, as discussed above, membrane damage may be visualized through SEM and TEM. […] TEM and SEM images taken approximately 2 minutes after Chp peptide (8 μg/mL) contact with P. aeruginosa show the formation of multiple bulges on the bacterial membrane, as well as the appearance of pore formation and degradation of the cellular membrane. TEM and SEM images taken approximately 5 minutes after Chp peptide (8 μg/mL) contact with P. aeruginosa show continued formation of membrane bulges, along with degradation of the cellular membrane, condensation of electron-dense cytoplasmic material, formation of spheroplasts, and pore formation. TEM and SEM images taken approximately 20 minutes after Chp peptide (8 μg/mL) contact with P. aeruginosa show multiple instances of pore formation and the appearance of ghost cells, empty of intracellular content.

Burkholderia cepacia = experiment: MIC by broth microdilution against Burkholderia cepacia; format: cell-based; conditions: N 9
Method: as §1

[7] = Acinetobacter baumannii, AR Bank, N 41
[8] = Acinetobacter baumannii, Weill Cornell, N 26
[9] = Acinetobacter baumannii, all isolates, N 67
[10] = Enterobacter cloacae, AR Bank, N 7
[11] = Enterobacter cloacae, Weill Cornell, N 30
[12] = Enterobacter cloacae, all isolates, N 37
[13] = Escherichia coli, AR Bank, N 17
[14] = Escherichia coli, Weill Cornell, N 13
[15] = Escherichia coli, all isolates, N 30

C[C@@H](O)[C@H]1C(=O)N2C(C(=O)O)=C(S[C@@H]3CN[C@H](C(=O)N(C)C)C3)[C@H](C)[C@H]12 [meropenem, reference compound]
FICI of the antibiotic with GN370 (A. baumannii [1]): 0.5

B1: GN370: lysin-AMP construct, SEQ ID NO: 149: MIDR, FIRL and NPTH moieties N-terminal to GN202 lysin (protein)
chain: MIDRFIRLNPTHGPRRPRRPGRRAPVRTSQRGIDLIKSFEGLRLSAYQDSVGVWTIGYGTTRGVTRYMTITVEQAERMLSNDIQRFEPELDRLAKVPLNQNQWDALMSFVYNLGAANLASSTLLDLLNKGDYQGAADQFPHWVNAGGKRLDGLVKRRAAERALFLEPLS
modifications: GN370 lysin
MIC (A. baumannii [2]; A. baumannii ATCC BAA 747 (Table 27)): (MIC = 1 μg/mL) | MIC (A. baumannii [2]; A. baumannii ATCC BAA-747 (head of Table 19)): 1 µg/mL | MIC90 (A. baumannii [2]; A. baumannii clinical and resistant isolates): 1 µg/mL | MIC50 (A. baumannii [2]; [7]): 1 µg/mL | MIC90 (A. baumannii [2]; [7]): 1 µg/mL | MIC Range (A. baumannii [2]; [7]): 0.064 to 2 µg/mL | MIC50 (A. baumannii [2]; [8]): 1 µg/mL | MIC90 (A. baumannii [2]; [8]): 1 µg/mL | MIC Range (A. baumannii [2]; [8]): 0.25 to 1 µg/mL | MIC50 (A. baumannii [2]; [9]): 1 µg/mL | MIC90 (A. baumannii [2]; [9]): 1 µg/mL | MIC Range (A. baumannii [2]; [9]): 0.0625 to 2 µg/mL | MIC (E. cloacae; E. cloacae ATCC 13047 (head of Table 19)): 2 µg/mL | MIC (E. cloacae; E. cloacae ATCC 29941): (MIC = 2 μg/mL) | MIC90 (E. cloacae; E. cloacae clinical and resistant isolates): 4 µg/mL | MIC50 (E. cloacae; [10]): 1 µg/mL | MIC90 (E. cloacae; [10]): 4 µg/mL | MIC Range (E. cloacae; [10]): 0.25 to 8 µg/mL | MIC50 (E. cloacae; [11]): 2 µg/mL | MIC90 (E. cloacae; [11]): 4 µg/mL | MIC Range (E. cloacae; [11]): 0.25 to 8 µg/mL | MIC50 (E. cloacae; [12]): 1 µg/mL | MIC90 (E. cloacae; [12]): 4 µg/mL | MIC Range (E. cloacae; [12]): 0.016 to 8 µg/mL | MIC (E. coli [3]; E. coli AR-128): (MIC = 0.25 μg/mL) | MIC (E. coli [3]; E. coli ATCC 25922 (head of Table 19)): 0.5 µg/mL | MIC90 (E. coli [3]; E. coli clinical and resistant isolates): 1 µg/mL | MIC50 (E. coli [3]; [13]): 0.5 µg/mL | MIC90 (E. coli [3]; [13]): 1 µg/mL | MIC Range (E. coli [3]; [13]): 0.125 to 1 µg/mL | MIC50 (E. coli [3]; [14]): 0.25 µg/mL | MIC90 (E. coli [3]; [14]): 0.5 µg/mL | MIC Range (E. coli [3]; [14]): 0.064 to 4 µg/mL | MIC50 (E. coli [3]; [15]): 0.25 µg/mL | MIC90 (E. coli [3]; [15]): 1 µg/mL | MIC Range (E. coli [3]; [15]): 0.0625 to 4 µg/mL | MIC Range (Citrobacter freundii): 0.5 to 2 µg/mL | MIC Range (Klebsiella oxytoca): 4 µg/mL | MIC Range (Kluyvera ascorbate): 1 µg/mL | MIC Range (Salmonella senftenberg): 2 µg/mL | MBEC50 (K. pneumoniae [4]): 1 µg/mL | MBEC90 (K. pneumoniae [4]): 2 µg/mL | MBEC Range (K. pneumoniae [4]): 0.5 to 4 µg/mL | Number of isolates at MBEC 0.5 μg/mL (K. pneumoniae [4]): 3 | Number of isolates at MBEC 1 μg/mL (K. pneumoniae [4]): 3 | Number of isolates at MBEC 2 μg/mL (K. pneumoniae [4]): 4 | Number of isolates at MBEC 4 μg/mL (K. pneumoniae [4]): 1 | MBEC50 (E. coli [5]): 0.5 µg/mL | MBEC90 (E. coli [5]): 2 µg/mL | MBEC Range (E. coli [5]): 0.25 to 2 µg/mL | Number of isolates at MBEC 0.5 μg/mL (E. coli [5]): 5 | Number of isolates at MBEC 1 μg/mL (E. coli [5]): 2 | Number of isolates at MBEC 2 μg/mL (E. coli [5]): 2 | Number of isolates at MBEC […] (E. coli [5]): 2 | Log10 CFU/mL (K. pneumoniae [6]; 0.2x MIC, 1 hr): 5.2 Log10 CFU/mL | Log10 CFU/mL (K. pneumoniae [6]; 0.2x MIC, 3 hr): 5.0 Log10 CFU/mL | Log10 CFU/mL (K. pneumoniae [6]; 0.2x MIC, 24 hr): 8.5 Log10 CFU/mL | Log10 CFU/mL (K. pneumoniae [6]; 1x MIC, 1 hr): 2.0 Log10 CFU/mL | Log10 CFU/mL (K. pneumoniae [6]; 1x MIC, 3 hr): 1.5 Log10 CFU/mL | Log10 CFU/mL (K. pneumoniae [6]; 1x MIC, 24 hr): 1.5 Log10 CFU/mL | Log10 CFU/mL (K. pneumoniae [6]; 2x MIC, 1 hr): 1.5 Log10 CFU/mL | Log10 CFU/mL (K. pneumoniae [6]; 2x MIC, 3 hr): 1.5 Log10 CFU/mL | Log10 CFU/mL (K. pneumoniae [6]; 2x MIC, 24 hr): 1.5 Log10 CFU/mL | Log10 CFU/mL (K. pneumoniae [6]; 5x MIC, 1 hr): 1.5 Log10 CFU/mL | Log10 CFU/mL (K. pneumoniae [6]; 5x MIC, 3 hr): 1.5 Log10 CFU/mL | Log10 CFU/mL (K. pneumoniae [6]; 5x MIC, 24 hr): 1.5 Log10 CFU/mL | concentration with bactericidal activity (≥3-log 10 CFU/mL reduction at 24 hours) (K. pneumoniae [6]; K. pneumoniae, 37° C.): ≥ 1 ×MIC | membrane damage seen by TEM and SEM (P. aeruginosa): more extensive and larger membrane blebs | MIC50 (Burkholderia cepacia): >64 µg/mL | MIC90 (Burkholderia cepacia): >64 µg/mL | MIC Range (Burkholderia cepacia): >64 µg/mL
